Experimental data taken from the nanobody polyreactivity screen of Harvey et al. (2022).

Assay: yeast display, Sf9 membrane polyspecificity reagent, FACS + sequencing; frameworks hold sequencing errors
Summary of the method: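 Synthetic nanobody libraries on Saccharomyces cerevisiae BJ5465 were galactose-induced for 36–48 hours, stained 1 hour at 4 °C with 10% biotinylated, detergent-solubilized Sf9 membrane reagent and enriched on streptavidin microbeads. FACS then separated cells into low and high (top ~1%) gates by anti-HA (expression) and streptavidin (reagent binding) fluorescence. Genes were colony-PCR amplified, MiSeq 2 × 250 sequenced and CDR-length filtered. A clone's polyreactivity label is that of its gate of origin.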

Row | Sequence | polyreactivity (PSR sort gate)
1 | QVQLEESGGGLVQAGGSLRLSCAASGRTFRLNVMGWYREAPGKQRELVAAISTRGGDTYYADSVKGRFTISLDNAKNTDYLQMNSLKPEDTALYYCAAEYTYVYDYWGQGTQVTLSS | high polyreactivity
2 | QVQLVESGGGLVQAGGSLRLSCAASGSIYYRYAMGWYRQAPGKERELVAAISKRGGSTYYADSVKGRFTISRDNAKITVYLQMNRLKPEDTAVYYCAAEVSSFLYTPSYSTDDYWGQGTQVTVSS | high polyreactivity
3 | QVQLVESGGGLVQAGGSLRLICAASGSTFRNYAMGWYRQAPGKEREFVAAITWSGGRTYYADSVKGRFTISRDNAKNTVYLQMNSLKPEDTAVYYCAARYRRGYDYWGQGTQVTVSS | high polyreactivity
4 | QVQLVESGGGLVQAGGSLRLSCAASGYTYGTYDMRWYRQAPGKERELVAAFSIGGSTNYADSVKGRFTISRDNAKNTVYLQMNSLKPEDTAVYYCAAEVNVGTLLLSVIVEDGDYWGQGTQVTVSS | low polyreactivity
5 | QVQLVESGGGLVQAGGSLRLSCAASGRTLSVYAMGWYSQAPGKEMEFVAAISFSGGSTYYADSVKGRFTISRDNAKNTVYLQMNSQKPEDTAVYYCATAYPEFLSTTVGLLYLDDYWGQGTQVTVSS | low polyreactivity
6 | QVQLVESGGGLVQAGCSLRLSWAASGRIFRPNSMGWYRQAPGKERELVAAITSNGGRTYYADSVKGRFTISRDNAKNTVYLQMNSLKPEDTAVYYCAKRVWYYSHKYDYWGQGTQVTVSS | high polyreactivity
7 | QVQLVESGGGLVQAGGSLRLSCAASVFIFGLYAMGWYRQAPGKERELVAAISRSGGSTYYADSVKGRFTISRDNEKNTVYLQMNSLKPEDTAVYYCAKRASPRQAGPIYDSWGQGTQVTVSS | high polyreactivity
8 | QVQLVESGGGLVQAGGSLRLSCAASGSTFRWYAMGWYRQAPGKERELVAAIRYTGGSTYYADSVKGRFTISRDNAKNTVYLQMNSLKPEDTAVYYCNARTFRRYVSYSRTYVGYDYWGQGTQVTVSS | high polyreactivity
9 | QVQLVESGGGLVQAGGSLRLSCAASGFIFWLYAMGWYRQAPGKERELVATITYSDGSTYYADSVKGRFTISRDNAKNTVYLQMNSLKPEDTAVYYCAAEVYYGYDYWGQGTQVTVSS | low polyreactivity
10 | QVQLVESGGGLVQAGGSLRLSCPASGRTIRPYAMGWYRQAPGKERELVAAITGSGTSTYYADSVKGRFTISRDNAKNTVYLQMNSLKPEDTAVYYCAVAIGYVYKTYYYWGQGTQVTVSS | high polyreactivity
11 | QVQLVESGGGLVQAGGRLRLSCAASGSTFGGNAMGWSRQAPGKERELVATISNSGGRTYYADSVKGRFTISRDNAKNTVYLQMNSLKPEDTAVYYCAADHPAFGPGYSFDYWGQGTQVTVSS | low polyreactivity
12 | QVQLVESGGGLVQAGGSLRLSCAASGSILGHYAMGWYRQAPGKERELVAAISWSGGSTYYADSVKGRFTISRDNAKNTVYLQMNSLKPEDTAVYYCNAYLSPKQPLSPPDPTFEGGYWGQGTQVTVSS | low polyreactivity
13 | QVQLVESGGGLVQAGGSLRLSCAASGRTFSPYAMGWYRQAPGKERELVAAITSRGASTYYADSVKGRFTISRDNAKNTVYLQMNSLKPEDTAVYYWNSGRTYRRLGDYWGQGTQVTVSS | high polyreactivity
14 | QVQLVESGGGLVQAGGSLRLSCAASGFTFYGNAMGWYRQAPGKERELVAAISGRGGSTYYADSVKGRFTISRDNAKNTVYLQMNSLKPEVTAVYYCAIYVSWPLYYYWGQGTQVTVSS | low polyreactivity
15 | QVQLVESGGGLVQAGGSLRLSCAASGRIFGTYAMGWYRQAPGKERELFAAITLSDGSTYYADSVKGRFTISRDNAKNTVYLEMNTLKPEDTAVYYCAAVVDRFHPGLYEYWGQGTQVTVSS | low polyreactivity
16 | QVQLVESGGGLVQAGGSLRLSCAASGITFSPYTMGWYRQAPGKERELVAAINSGGRTNYADSVKGRFTISRDNAKNTVYLQMNSLKPEDTAVYYCTKRGHPARLGYYYWGQGTQVTVSS | low polyreactivity
17 | QVQLVESGGGLVQAGGSLRLSCAASGSTFARYAMGWYRQAPGKERELVAAISRSGSNTYYADSVKGRFTISRDNAKNTVYLQMNSLKPEDTAVYYCAAVQPGQRTVAYDYWGQGTLVTVSS | high polyreactivity
18 | QVQLVESGGGLVQAGGSLRLSCAASGFIFRGYGMGWYRQAPGKERELVASITTGGRTNYADSVKGRFTISRDNAKNTVYVQMNSLKPEDTAVYYCAATYYLRLRRPYWQGFNYWGQGTQVTVSS | high polyreactivity
19 | QVQLVESGGGLVQAGGSLRLSCAASGSTFRYYAMGWYRQAPGKERELVAAISTSGGRTYYADSVKGRFTISRDNAKNTVYLQMNSLKPEDTAVYYCNARESRGYSDQTWKYYYWGQGTQVTVSS | high polyreactivity
20 | QLQLVESGGALVQAGGSLRLSCAASGFTFSRNVMGWYRQAPGKERELVAAISSGSTYYADSVKGRFTISRDNAKKTVYLQMNSLKPEDTAVYYCAKRGRLRNYDYWGQGTKVTVSS | high polyreactivity
21 | QVQLVESGGGLVQAGGSLRLSCAASGFTFRDYAMGWYRQAPGKERELVAAISFSGGRTFYADSVKGRFTISRDNAKNTVYLQMNSLKPEDTAVYYCNAQYLTYRYYPRRNLDYWGQGTQVTVSS | high polyreactivity
22 | QVQLVDSGGGLVQAGGSLRLSCAASGGTLRYYAMGWYRQAPGTEREFVASISRSGGSTYYADSVKGRFTISRDTAKYTVYLQMNSLKPVDTAVYYCADVKSSGSPRARYGYWGQGTQVTLSS | high polyreactivity

Row | Sequence | polyreactivity (PSR sort gate)
23 | QVQLGESGGGLLQAGGSLRLSCAASGRISSQYAMGLYRQAPWKERELFAAISTSGDRTYYADSVKGRFTISRDNAKNTVYLQMNSLKPEDTAVYYCAKEGPYTYGRDIYEYWGQGTQVTVSS | low polyreactivity
24 | QDQLVESGGGLVQAGGSLRLSCAASGLIFVGYALGGYRQAPGKERELVAAITSGGSTKYADSVKGRFTSSRDNAKNTVYLQMNSLKPEDTAVYYCAASGWRNWWSARNYYWGQGTQVTVSS | high polyreactivity
25 | QVQLVESGGGLVQAGGSLRLSCAASGRTFEGNAMGWYRQAPGKERELVAAINSSGGSTYYADSVKGRFTISRDNAKNTVYLQMNSLKPEDTAVYYCNAVAGPQGVKLYDYWGQGTQVTVSS | low polyreactivity
26 | QVQLVESGGGLVQAGGSLRLSCAASGRIFKLYAMGWYRQAPGKESELVAAITRRGGSTSYADSVKGRFTISRVNAKNTVYLQMNSLKPEDTSVYYCAASLSPWFTSYYLPYDLGYWGQGTQVTVSS | high polyreactivity
27 | QVQLVESGGGLVQAGGSLRLICAASGSTFGVNAMGWYRQAPGKERELVAVITRSGGSTYYADSVKGRFTISRDNAKNTVYLEMNSLKPEDTAVYYCAKSGVVDWGQGTQVTVSS | low polyreactivity
28 | QVQLVESGGGLVQAGGSLRLSCAASGSTFSYYAMGWYRQAPGKEWEFVAAISRSGGRTYYADSVKGRFTISRDNAKNTVYLQMNSLKPEDTAVYYCATVYYYDFSRTHPWPGDYWGQGTQVTVSS | high polyreactivity
29 | QVQLVESGVGLVQAGGSLRLSCAASGIIFSSYAMGWYRQAPGKERELVAAITWNGGRTYYADSVKGRFTISRDNAKNSVYLQMNSLKPEDTAVYYCAALQGRSSARQDSYGYWGQGTQVTVSS | high polyreactivity
30 | QVQLVESGGGLVQAGGSLRLSCAASGGTFPYNAMGWYRQAPGTERELVAVITSGDGTYYADSVKGRFTNSRDNAKNTVYLQMNSLKPEDTAVDYCAAVIFWDVPYDYWGQGTQVTVSS | low polyreactivity
31 | QVQLVESGGGIVQAGGSLRLSCAASGRIFSVNAMGWYRQAPGKERELVAAITGSGTITYYADSVKGRFTISRDNAKNSVYLQMNSLKPEDTAVYYCAARPVLRYYAGYYYWGQGTQVTVSS | high polyreactivity
32 | QVQLVESGGGLVQAGGSLRLSCAASGRIIVDNAMGWYRQAPGKERELVAAITNGGSTSYADSVKGRFTISRDNAKNTVYLQMNSLKPEDTAVYYCNADEDLRGYDYWGQGTQVTVSS | low polyreactivity
33 | QVQLVESGGGLVQAGGSLRLSCAASGSTSMSYVKGWYRQAPGKERELVASITSSGGSTYYADSVKGLFTISRDNAKNTVYLQMNSLKPEDTAVYYCNARSYIYPFSPTSYYRYYWGQGTQVTVSS | high polyreactivity
34 | QVQLVESGGGLVQAGGSLRISCAASGFIFWIYAMGWYRQAPGKEREFVAVITYRGDTTYYADSVKGRFTISRDNAKNTVYLQMNSLKPEDTAVYYCAAYTVQKYGYWGQGTQVTVSS | low polyreactivity
35 | QVQLVESGGGLVQAGGSLRLSCAASGGIFAPNAKGWYRQAPGKEREFVAAISTGGGSTRYADSVKGRFTISRDNAKYTVYLQMNSLKPEDTAVYYCAATRVGVRRMDYWGQGTQVTVSS | low polyreactivity
36 | QVQLVESGGGLVQAGGSLRLSCAASGRTFWGYAMGWYRQAPGKERELVAAISSGGDTTYADSVKGRFTISRDNAKNTVYLQMNSLKPEDTAVYYCAADRWIPVYILGADGYDYWGQGTQVTVSS | low polyreactivity
37 | QVQLVESGGGLVQAGGSLRLSCAPSGSTFYVNTMGWYRQAPGKERELVAAITATGASTYYADSVKGRFTISRDNAKNTVYVQMNSLKPEDTAVYYCNVRLRIRSGYWGQGTQVTVSS | high polyreactivity
38 | QVHLVESGGGLVQAGGSLRLSCAASGSTFVTNAMGWYRQAPGKERELVAAITSGAGTYYADSVKGRFTISRDNAKNTVYLQMNSLKPEDTAVYYCAARRYYSRGRYRFGYWGQGTQVTVSS | high polyreactivity
39 | QVQLVESGGGLVQAGGSLPLSCAASGSTFRYNAMGWYRQAPAKERELVAAISSGSSTNYADSVKGRFTISLDNAKNTVYLQMKSLKPEDTAVYYCARRPFYYHQLDDDYWGQGTQVTVSS | low polyreactivity
40 | QVQLVESGGGLVQAGGSLRLSCAASGITFGPYAMGWYRQAPGKERELVAAITWGGGSTYYADSVKGRFTISRDNAKNTVYFQMNSLKPEDTAVYYCAASVEWYGWYPYDFWGQGTQVTVSS | low polyreactivity
41 | QVQLVESGGGLVQAGGSLRLSCAASGSIFGPYAMGWYRQAPGKERELVAAITWTGGRTYYADSVKGRFTISRDNAKNTVYLQMISLNPEDTAVYYCAADYSPSTWYLYYTLFYYWGQGTQVTVSS | low polyreactivity
42 | QVQLVESGGGLVQAGGSLRLSCAASGITFVRYAMGWYRQATGKERELVAGISRGGSTNYADSVKGRFTISRDNAKNTVYLQMNSLKPEDTAVYYCNRVFTWRYGYRYEYWGQGTQVTVSS | high polyreactivity
43 | QVQLVESGGGLVQAGGSLRLSCAASGRIFSYYAMGWYRQAPGTERELVAAISWSGSRTNYADSVKGRFTISRDNAKNTVYLQMKSLKPEDTAVYYCAAEDWSTQGSATVQYDYWGQGTEVTVSS | high polyreactivity
